Test results: patent US20250026813A1 (published 2025)

Experiments:
[1] = biological target: SARS-CoV-2 spike protein bearing furin mutation and truncation in retention sequence, on pseudoviral particles (SARS-CoV-2, UniProt P0DTC2 14-1255); test: cell-based or functional assay
[2] = biological target: full-length stabilised spike trimer protein of SARS-CoV-2 virus (in-house, soluble ECD with trimeris (SARS-CoV-2, UniProt P0DTC2 14-1208; P10104 458-484)

| Binder | PV neutralisation IC50 [1] [nM] | PV neutralization % (Ab 1 ug/mL) [1] [%] | HTRF deltaF [2] [deltaF] |
| --- | --- | --- | --- |
| YANG-1119 (antibody, V domains shown) VH: EVQLVESGGGLVKPGGSLRLSCAASGFTFSSYSMNWVRQAPGKGLEWVSSISTGSSYIFYADSVKGRFTISRDNAKNSLYLQMNSLRAEDTAVYYCAKTGDLPFFDYWGQGTLVTVSS VL: QSALTQPASVSGSPGQSITISCTGTSSDVGRYNYVSWYQQHPGKAPKLMIYEVSNRPSGVSNRFSGSKSGNTASLTISGLQAEDEADYYCSSYTSSSTMVFGGGTKLTVL | 0.96 | 99 | – |
| YANG-1113 (antibody, V domains shown) VH: EVQLVESGGGLVKPGGSLRLSCAASGFTFSSYSMNWVRQAPGKGLEWVSSISTGSSYIFYADSVKGRFTMSRDNAKNSLYLQMNSLRAEDTAVYYCAKTGDLPFFDYWGQGTPVTVSS VL: QSALTQPASVSGSPGQSITISCTGTSSDVGRYNYVSWYQQHPGKAPKLMIYEVSNRPSGVSNRFSGSKSGNTASLTISGLQAEDEADYYCSSYTSSSTMVFGGGTKLTVL | – | 97.6 | – |
| YANG-1116 (antibody, V domains shown) VH: EVQLVESGGGLVKPGGSLRLSCEASGFNFRSYALNWVRQAPGKGLEWVSSISTGSSYIFYADSVKGRFTISRDNAKNSLSLQMNSLRAEDTAVYYCAKTGDLPFFDYWGQGTLVTVSS VL: QSALTQPASVSGSPGQSITISCTGTSSDVGRYNYVSWYQQHPGKAPKLMIYEVSNRPSGVSNRFSGSKSGNTASLTISGLQAEDEADYYCISYTSSSTMVFGGGTKLTVL | – | 99.2 | – |
| YANG-1117 (antibody, V domains shown) VH: EVQLVESGGGLVKPGGSLRLSCAASGFTFSSYSVNWVRQAPGKGLEWVSSISTGSSYIFYADSVKGRFTISRDNAKNSLYLQMNSLRAEDTAVYYCVKTGDLPFFDYWGQGTLVTVSS VL: QSALTQPASVSGSPGQSITISCTGTRSDVGRYNYVSWYQQHPGKAPKLMIYEVTNRPSGVSNRFSGSKSGNTASLTISGLQAEDEADYYCSSYTNNSTMVFGGGTKLTVL | – | 97.8 | – |
| YANG-1118 (antibody, V domains shown) VH: EVQLVESGGGLVKPGGSLRLSCAASGFTFSSYALNWVRQAPGKGLEWVSSISTGSSYIFYADSVKGRFTISRDNAKHSLSLQMNSLRAEDTAVYYCAKTGDLPFFDYWGQGTLVTVSS VL: QSALTQPASVSGSPGQSITISCTGTSSDVGRYNYVSWYQQHPGKAPKLMIYEVSNRPSGVSNRFSGSKSGNTASLTISGLQAEDEADYYCISYTSSSTMVFGGGTKLTVL | 0.25 | 99.3 | – |
| YANG-1114 (antibody, V domains shown) VH: EVHLVESVGGLVKPGGSLRLSCAASGFTFSSYSMNWVRQAPGKGLEWVSSISTGSSYIFYADSVKGRFTISRDNAKNSLYLQMNSLRAEDTAVYYCAKTGDLPFFDYWGQGTLVTVSS VL: QSALTQPASVSGSPGQSITISCTGTSSDVGRYNYVSWYQQHPGKAPKLMIYEVSNRPSGVSNRFSGSKSGNTASLTISGLQAEDEADYYCSSYTSSSTMVFGGGTKLTVL | – | 93.2 | – |
| YANG-1115 (antibody, V domains shown) VH: EVQLVESGGGLVKPGGSLRLSCAASGFTFSSYSMNWVRQAPGKGLEWVSSISTGSSYIFYADSVKGRFTISRDNAKNSLYLQMNSLRAEDTAVYYCAKTGDLPFFDYWGQGTLVTVSS VL: QSALTQPASVSGSPGQSITISCTGTSSDVGRYNYVSWYQQHPGKAPKLMIYEVSNRPSGVSNRFSGSKSGNTASLTISGLQAEDEADYYCSSYTSSSTMVFGGGTKLSVL | – | 97.8 | – |
| YANG-1201 (antibody, V domains shown) VH: QVQLQESGPGLVKPSGTLSLTCAVSGDSISNSKWWSWVRQPPGKGLEWIGEIFHSGSTNYNPSLKSRVTISVDKSQNQFSLKLNSVTAADTAVYYCARSASLYYYYGVDVWGQGTTVTVSS VL: EIVLTQSPGTLSLSPGERATLSCRASQSVSNNYLAWYQQKPGQAPRLLIYGTSRRDTGIPDRFSGSGSGTDFTLTISRLEPEDFAVYYCEQYGSLPRTFGQGTKVEIK | – | 40.6 | – |
| YANG-1207 (antibody, V domains shown) VH: QVQLVESGGGVVQPGRSLRLSCAASGFTFSSYGMHWVRQAPGKGLEWVSVIWYDGTNKYYADSVKGRFTISRDNSKNTLYLQMNSLRAEDTAVYYCAREGVEFTGYFDYWGQGTLVTVSS VL: not shown | – | 39.9 | – |
| YANG-1203 (antibody, V domains shown) VH: EVRLVESGGALVQPGRSLRLSCAASGFIFDGYAMHWVRQVPGKGLEWVSGISWNSGNIGYADSVKGRFTISRDNAKNSLYLQMNSLRAEDTALYYCAKDIRPSGKYYYGMDVWGQGTTVTVSS VL: not shown | – | 41.4 | – |
| YANG-1109 (antibody, V domains shown) VH: EVQLVESGGGLIQPGGSLRLSCGVSGLTVSRNYMNWVRQAPGKGLEWVSVIYSGGSTFYADSVKGRFTISRDNSKNTLYLQMISLRAEDSGVYYCAREGFGMDVWGQGTTVTVSS VL: DIQLTQSPSFLSASVGDRVTITCWASQGISNYLAWYQQKPGKAPKLLIYSASTLQSGVPSRFSGSGSGTEFTLTISNLQPADIATYYCQLLNSHPCSFGQGTKLEIK | 1.81 | 99.4 | – |
| IMPI-002 (antibody, V domains shown) VH: EVQLVESGGGLIQPGGSLRLSCAASGVTVSSNYMSWVRQAPGKGLEGVSVIYSGGSTYYADSVKGRFTISRDNSKNTLYLQMNSLRAEDTAVYYCARDTVVYGMDVWGQGTTVTVSS VL: DIQLTQSPSFLSASVGDRVTITCWASQGISSYLAWYQQKPGKAPKLLIYAASTLQSGVPSRFSGSGSGTEFTLTISSLQPEDFATYYCQQLNSYPLTFGGGTKVEIK | – | – | 913 |
| YANG-1202 (antibody, V domains shown) VH: EMQLVESGGGLVQPGGSLRLSCAASGFTFSSFWMRWVRQAPGKGLEWVANIKQDGTEKYYVDSVKGRFTISRDNAKNSLYLQMNSLRAEDTAVYYCVRDRVGGDYYYYDMDVWGQGTTVTVSS VL: DIQMTQSPSSLSASVGDRVTITCRASQDISNYLAWFQQKPGKAPKSLIYAASSLQSGVPSKFSGSGSGTDFTLTISGLQPEDSATYYCQQYNSYPRTFGQGTKVEIK | – | 51.9 | – |
| YANG-1108 (antibody, V domains shown) VH: QVQLVESGGGVVHPGRSLRLSCVVSGFTFSGYGMYWVRQAPGKGLEWVAVISKDGSDKYYADSVKGRFTISRDNSKNTLNLQMNSLRAEDTAVFYCAKERTFQGSGSYYNNYFYYGMDVWGQGTTVTVSS VL: AIQLTQSPSSLSASVGDRVTITCRASQGISSALAWYQQKPGKAPNLLIYDASSLESGVPSRFSGSGFGTDFTLTINSLQPEDFASYYCQQFKSYPLTFGGGTKVEIK | – | 95.2 | – |
| YANG-1205 (antibody, V domains shown) VH: QVQLVQSGAEVKKPGASVKVSCKASGYTFTSYCIHWVRQAPGQGLEWMGIINPSGGGTIFAQKFQGRVTMTRDTSTTTVYMELGSLRSDDTALYYCARGWSYDFWSGPDYWGQGTLVSVSS VL: DIVMTQTPLSLSVTPGQPASISCKSSQSLLHSDGKTYLYWYLQKPGQPPQLLIYEVSNRFSGVPDRFSGSGSGTDFTLKISRVGAEDVGIYYCMHSIKLPPTFGQGTKVEIK | – | 40.2 | – |
| YANG-1110 (antibody, V domains shown) VH: QVQLAESGGGVVQPGRSLRLSCVVSGFTFSNYGMHWVRQAPGKGLEWVVFISNDGSNEDFVDSVKGRFTISRDNSKNTLYLQMNSLRAEDTAVYYCAKGGYFYGSGNYYYYYGMDVWGQGTTVTVSS VL: QPVLTQSSSASASLGSSVKLTCTLSSVHSNHIIAWHQQQPGKAPRYLMKLEGSGRYSKGSGVPDRFSGSSSEADRYLTISNLQSEDEADYYCETWDNNTYVFGSGTKVTVL | – | 99.3 | – |
| YANG-1106 (antibody, V domains shown) VH: EVQLVESGGGLIQPGGSLRLSCAASEFIVSRNYMSWVRQAPGKGLEWVSVIYSGGSTFYADSVRGRFTISRDNSKNTLYLQMNSLRAEDTAVYYCARDYGDQYFDYWGQGTLVTVSS VL: EMVMTQSPATLSVSPGEKATLSCRASQTVSTNLAWYQQKPGQSPRLLIYGASTRATGIPARFSGSGSGTEFTLTISSLQSEDFAIYYCQQYVDWPRTFGQGTTVEIK | – | 99.5 | – |
| YANG-1112 (antibody, V domains shown) VH: QITLKESGPTLVKPTQTLTLTCTFSGFSLSTGGVAVGWIRQPPGKALEWLAIIYWDDDKRYSPSLKSRLTITKDTSKNQVVLTMTNMDPVDTATYYCAHWGKDSFDIWGQGTMVTVSS VL: SYELTQPPSVSVSPGQTARITCSGDALPRKYAYWYQQKSGQAPVLVIYEDNNRPSGIPERFSGSSSGTTATLTVSGAQVEDEADYYCYSTDTSGYVVFGGGTKLTVL | 0.52 | 89.2 | – |
| YANG-1111 (antibody, V domains shown) VH: EVQLVESGGGLIQPGGSLRLSCAASGFTFSSYSINWVRQAPGKGLEWVSFISGSSTTIYYADSVKGRFTISRDSAKNSLYLQMNSLRDEDTAVYYCARGLRSSIAPRPDYFDSWGQGILVTVSS VL: SYVLTQPPSVSVAPGKTARITCGGNNIGSKGVHWYQQKPGQAPVLVIYYDSDRPSGIPERFSGSNSGNTATLTISRVEAGDEADYSCQVWDSSSDHPVFGGGTKLTVQ | 1.82 | 72.7 | – |
| YANG-1206 (antibody, V domains shown) VH: QVHLVESGGGMVQPGRSLRLSCAASGFTFSIYAMHWVRQAPGKGLEWVAVISYDGSNKYYADSVKGRFTISRDNSKNTLYLQMNSLRAEDTAVYYCAKVYGGSYWGGFDYWGQGTLVTVSS VL: QSVLTQPPSVSGAPGQRVTISCTGTSSNIGSIYDVHWYQQLPGTAPKLLIYGNSNRPSGVPDRFSGSKSGTSASLAITGLQAEDEADYYCQSYDTSLSGSWVFGGGTKLNVL | – | 45.9 | – |
| YANG-1204 (antibody, V domains shown) VH: QVQLVESGGGVVQPGRSLRLSCAVSGFTFSNYGIHWVRQAPGKGLVWVAVISYEGSIKYYGDSVKGRFTISRDNSKNTLYLQMNSLRAEDTAVYYCARGAVAGNDAFDIWGQGTMVTVSS VL: not shown | – | 44.8 | – |
